Target: SARS-CoV-2 spike receptor-binding domain (RBD), wild type (Severe acute respiratory syndrome …, UniProt P0DTC2)
Assay: SPR
Conditions: both partners purified

B1: 7B8, recombinant fully human IgG1 (antibody, V domains shown)
VH: QVQLVESGGGVVQPGRSLRLSCAASGFIFSSYGMHWVRQAPGKGLEWVAVIWFDGSNKYYADSVKGRFTISRDNSKNTLYLQMNSLRAEDTAVYYCARETVSYGMDVWGQGTTVTVSS
VL: NIQMTQSPSAMSASVGDRVTITCRARQGISNYLAWFQQKPGKVPKHLIYAASSLLSGVPSRFSGSGSETEFTLTISSLQPEDFATYYCLQHNSYPYTFGQGTKLEIK
notes: also called Ab4; source: ExpiCHO-S, transient expression, purified (protein A)
- Kd: 0.523 nM
- koff: 9.55e-05 s⁻¹
- kon: 182000 M⁻¹ s⁻¹

— article PMC8290868 (Cell Discovery, 2021)
